Measurements reported in the supplement of paper PMC9112550, “Optimization of the antimicrobial peptide Bac7 by deep mutational scanning” (BMC Biology, 2022).

Test system: Escherichia coli TOP10
Assay: shrunken log2 fold change of peptide-encoding DNA abundance (4.5 h post-induction vs induction); higher = less antimicrobial activity (less host growth inhibition)
Details: time post-induction: 4.5 h; library: site-saturation at positions 5, 18, 19, 20
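Note: peptides expressed intracellularly from a pBAD plasmid library in pooled LB shake-flask culture, induced with 0.3% L-arabinose, DNA abundance read by NGS, three biological replicates, DESeq2 with apeglm shrinkage.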

Sequence	shrunken log2 fold change
RRIRWRPPRLPRPRPRPLYWPRP	-0.34
RRIRKRPPRLPRPRPRPEMKPRP	0.682
RRIRVRPPRLPRPRPRPLAFPRP	-0.221
RRIRNRPPRLPRPRPRPSFSPRP	-0.322
RRIRWRPPRLPRPRPRPTTKPRP	0.5
RRIRHRPPRLPRPRPRPMLCPRP	-0.0124
RRIRVRPPRLPRPRPRPYVAPRP	-0.643
RRIRERPPRLPRPRPRPVPIPRP	0.343
RRIRSRPPRLPRPRPRPPRSPRP	0.483
RRIRQRPPRLPRPRPRPTHHPRP	0.0945
RRIRYRPPRLPRPRPRPKRSPRP	-0.113
RRIRKRPPRLPRPRPRPANYPRP	0.0421
RRIRNRPPRLPRPRPRPTNEPRP	0.239
RRIRTRPPRLPRPRPRPVGRPRP	0.129
RRIRKRPPRLPRPRPRPFMWPRP	-0.078
RRIRVRPPRLPRPRPRPDCHPRP	-0.296
RRIRQRPPRLPRPRPRPDMAPRP	0.0464
RRIRSRPPRLPRPRPRPTREPRP	0.536
RRIRMRPPRLPRPRPRPNLYPRP	-0.00588
RRIRTRPPRLPRPRPRPDHYPRP	-0.66
RRIRFRPPRLPRPRPRPSVQPRP	-0.241
RRIRKRPPRLPRPRPRPDFLPRP	0.179
RRIRTRPPRLPRPRPRPAVYPRP	-0.181
RRIRKRPPRLPRPRPRPNFEPRP	0.0868
RRIRQRPPRLPRPRPRPVIFPRP	-0.0797

Sequence	shrunken log2 fold change
RRIRERPPRLPRPRPRPQLSPRP	0.1
RRIRCRPPRLPRPRPRPHIYPRP	-0.954
RRIRARPPRLPRPRPRPLDKPRP	0.332
RRIRGRPPRLPRPRPRPDVDPRP	1.82
RRIRWRPPRLPRPRPRPSYDPRP	-0.256
RRIRCRPPRLPRPRPRPSNMPRP	-0.604
RRIRCRPPRLPRPRPRPFYWPRP	0.0228
RRIRLRPPRLPRPRPRPTLLPRP	0.0589
RRIRFRPPRLPRPRPRPCVRPRP	-0.0911
RRIRFRPPRLPRPRPRPEFCPRP	0.139
RRIRMRPPRLPRPRPRPMGPPRP	0.168
RRIRTRPPRLPRPRPRPQKRPRP	0.206
RRIRSRPPRLPRPRPRPTTKPRP	0.0807
RRIRHRPPRLPRPRPRPSNAPRP	-0.38
RRIRTRPPRLPRPRPRPWATPRP	-0.00422
RRIRCRPPRLPRPRPRPKMVPRP	-0.0546
RRIRQRPPRLPRPRPRPDAQPRP	-9.3e-05
RRIRRRPPRLPRPRPRPYLPPRP	-0.456
RRIRDRPPRLPRPRPRPFDEPRP	0.0788
RRIRNRPPRLPRPRPRPAAHPRP	-0.00675
RRIRVRPPRLPRPRPRPTMEPRP	-0.102
RRIRMRPPRLPRPRPRPNPNPRP	0.394
RRIRQRPPRLPRPRPRPIPCPRP	-0.244
RRIRGRPPRLPRPRPRPGYVPRP	-0.00987
RRIRTRPPRLPRPRPRPAFVPRP	-0.163

Sequence	shrunken log2 fold change
RRIRDRPPRLPRPRPRPYMRPRP	-0.0888
RRIRPRPPRLPRPRPRPVFFPRP	0.213
RRIRRRPPRLPRPRPRPCPVPRP	-0.256
RRIRNRPPRLPRPRPRPMMSPRP	0.0191
RRIRGRPPRLPRPRPRPHRDPRP	0.0592
RRIRNRPPRLPRPRPRPIHNPRP	-0.976
RRIRGRPPRLPRPRPRPYRFPRP	0.0893
RRIRTRPPRLPRPRPRPCRFPRP	-0.265
RRIRCRPPRLPRPRPRPQHYPRP	-0.796
RRIRHRPPRLPRPRPRPEGVPRP	0.0659
RRIRIRPPRLPRPRPRPCMGPRP	-1.07
RRIRWRPPRLPRPRPRPAMYPRP	-0.112
RRIRGRPPRLPRPRPRPGISPRP	0.0483
RRIRPRPPRLPRPRPRPVIEPRP	-0.0347
RRIRTRPPRLPRPRPRPLPAPRP	0.364
RRIRERPPRLPRPRPRPTKTPRP	-0.0835
RRIRVRPPRLPRPRPRPDWNPRP	-0.343
RRIRRRPPRLPRPRPRPQGAPRP	-0.0933
RRIRPRPPRLPRPRPRPLKNPRP	0.186
RRIRIRPPRLPRPRPRPRVRPRP	0.112
RRIRARPPRLPRPRPRPHDHPRP	-0.0299
RRIRCRPPRLPRPRPRPAYWPRP	0.293
RRIRNRPPRLPRPRPRPVLQPRP	-0.157
RRIRRRPPRLPRPRPRPMKMPRP	0.18
RRIRSRPPRLPRPRPRPKHGPRP	-0.22

Sequence	shrunken log2 fold change
RRIRWRPPRLPRPRPRPRKDPRP	-0.0246
RRIRKRPPRLPRPRPRPNKPPRP	-0.0304
RRIRIRPPRLPRPRPRPNIYPRP	-0.111
RRIRPRPPRLPRPRPRPLKLPRP	-0.267
RRIRRRPPRLPRPRPRPFRTPRP	-0.0909
RRIRQRPPRLPRPRPRPLDVPRP	-0.0496
RRIRQRPPRLPRPRPRPNHFPRP	0.189
RRIRIRPPRLPRPRPRPTMVPRP	-0.719
RRIRSRPPRLPRPRPRPWRNPRP	-0.0428
RRIRHRPPRLPRPRPRPVVAPRP	-0.233
RRIRHRPPRLPRPRPRPAPGPRP	0.536
RRIRMRPPRLPRPRPRPPHDPRP	1.47
RRIRHRPPRLPRPRPRPMAFPRP	0.166
RRIRQRPPRLPRPRPRPRPCPRP	0.409
RRIRWRPPRLPRPRPRPQLCPRP	0.078
RRIRGRPPRLPRPRPRPKFEPRP	0.411
RRIRYRPPRLPRPRPRPVMNPRP	-0.115
RRIRCRPPRLPRPRPRPHEPPRP	-0.00114
RRIRFRPPRLPRPRPRPHFLPRP	-0.827
RRIRMRPPRLPRPRPRPIKPPRP	-0.231
RRIRWRPPRLPRPRPRPDHTPRP	-0.000848
RRIRGRPPRLPRPRPRPFCQPRP	0.0716
RRIRARPPRLPRPRPRPWTQPRP	0.0723
RRIRYRPPRLPRPRPRPYTAPRP	0.00143
RRIRLRPPRLPRPRPRPENVPRP	-0.0483

Sequence	shrunken log2 fold change
RRIRRRPPRLPRPRPRPSMWPRP	0.168
RRIRHRPPRLPRPRPRPSWYPRP	-0.152
RRIRNRPPRLPRPRPRPKMSPRP	-0.064
RRIRSRPPRLPRPRPRPYDWPRP	-0.102
RRIRARPPRLPRPRPRPELDPRP	1.78
RRIRDRPPRLPRPRPRPNVYPRP	0.0576
RRIRCRPPRLPRPRPRPHRMPRP	-0.401
RRIRKRPPRLPRPRPRPEIIPRP	-0.0419
RRIRNRPPRLPRPRPRPPNVPRP	-0.0463
RRIRSRPPRLPRPRPRPIMYPRP	-0.42
RRIRRRPPRLPRPRPRPEKPPRP	0.376
RRIRLRPPRLPRPRPRPMNFPRP	-0.102
RRIRSRPPRLPRPRPRPEVDPRP	0.51
RRIRWRPPRLPRPRPRPPTKPRP	4.13
RRIRPRPPRLPRPRPRPWVRPRP	0.113
RRIRWRPPRLPRPRPRPMTPPRP	0.764
RRIRQRPPRLPRPRPRPRCRPRP	0.0135
RRIRQRPPRLPRPRPRPLQHPRP	0.164
RRIRKRPPRLPRPRPRPTTNPRP	0.486
RRIRPRPPRLPRPRPRPWKMPRP	0.0124
RRIRKRPPRLPRPRPRPNVFPRP	0.154
RRIRARPPRLPRPRPRPCHIPRP	0.00153
RRIRIRPPRLPRPRPRPRPDPRP	0.0926
RRIRDRPPRLPRPRPRPHIEPRP	0.0695
RRIRVRPPRLPRPRPRPHGIPRP	0.00955

Sequence	shrunken log2 fold change
RRIRERPPRLPRPRPRPLKQPRP	-0.121
RRIRARPPRLPRPRPRPSRKPRP	0.00605
RRIRIRPPRLPRPRPRPCAKPRP	0.0416
RRIRQRPPRLPRPRPRPWVAPRP	-0.182
RRIRFRPPRLPRPRPRPDVCPRP	-0.1
RRIRQRPPRLPRPRPRPDIMPRP	-0.136
RRIRNRPPRLPRPRPRPTAWPRP	-0.0125
RRIRGRPPRLPRPRPRPTRRPRP	0.663
RRIRQRPPRLPRPRPRPKIWPRP	0.362
RRIRHRPPRLPRPRPRPRLFPRP	0.164
RRIRCRPPRLPRPRPRPIQMPRP	-0.0491
RRIRFRPPRLPRPRPRPAVTPRP	-0.347
RRIRPRPPRLPRPRPRPYHCPRP	-0.0484
RRIRYRPPRLPRPRPRPCLHPRP	-0.633
RRIRERPPRLPRPRPRPYYGPRP	-0.127
RRIRPRPPRLPRPRPRPEYNPRP	-0.624
RRIRCRPPRLPRPRPRPHQQPRP	0.14
RRIRHRPPRLPRPRPRPNCGPRP	0.00696
RRIRVRPPRLPRPRPRPCSIPRP	-0.0267
RRIRSRPPRLPRPRPRPTINPRP	-0.229
RRIRCRPPRLPRPRPRPHFMPRP	-0.774
RRIRDRPPRLPRPRPRPCAMPRP	0.259
RRIRRRPPRLPRPRPRPIVQPRP	-0.0768
RRIRKRPPRLPRPRPRPDYMPRP	0.0305
RRIRKRPPRLPRPRPRPHSGPRP	0.066
